How the values were obtained:
NR2B = molecular target: T1, NR2B (Homo sapiens, UniProt Q13224); assay: Ion channel panel (IonWorks Barracuda): NR2B; format: cell-based; settings: 100% = no change, <100% = inhibition
T1 construct: host or cells: HEK293 or CHO
Procedure, shortened: (§1)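 Transfected HEK293 or CHO cells were exposed for at least 5 min to peptides at 200 nM and 20 μM final, tested in duplicate, in HEPES-buffered physiological saline. Activation was taken as peptide-plus-agonist current over control current ×100, and inhibition as 1 minus that ratio ×100. Each channel's control was its own reference compound.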

hERG = hERG (Homo sapiens, UniProt Q12809); assay: in vitro; settings: 100% = no change, <100% = inhibition
Procedure, shortened: as §1

Nav1.5 = Nav1.5 (Homo sapiens, UniProt Q14524); assay: in vitro; settings: 100% = no change; for Activity of Nav1.5 with peptide, expressed as a percentage of the reference compound: peptide at 0.2 μM; for Activity of Nav1.5 with peptide (percentage of the reference compound): peptide at 20 μM
Procedure, shortened: as §1

α3β4 = molecular target: T2, α3β4 (Homo sapiens, UniProt P30926+P32297); assay: Ion channel panel (IonWorks Barracuda): α3β4; format: cell-based; settings: 100% = no change, <100% = inhibition
T2 construct: host or cells: HEK293 or CHO
Procedure, shortened: as §1

NR2A = molecular target: T3, NR2A (Homo sapiens, UniProt Q12879); assay: Ion channel panel (IonWorks Barracuda): NR2A; format: cell-based; settings: 100% = no change, <100% = inhibition
T3 construct: host or cells: HEK293 or CHO
Procedure, shortened: as §1

GABA = assay: Ion channel panel (IonWorks Barracuda): GABA; format: cell-based; settings: 100% = no change, <100% = inhibition
Procedure, shortened: as §1

Nav1.7 = molecular target: T4, Nav1.7 (Homo sapiens, UniProt Q15858); assay: cell-based; format: cell-based; settings: 100% = no change; for Activity of Nav1.7 with peptide, expressed as a percentage of the reference compound: peptide at 0.2 μM; for Activity of Nav1.7 with peptide (percentage of the reference compound): peptide at 20 μM
T4 construct: host or cells: HEK293 or CHO

Kv2.1 = molecular target: T5, Kv2.1 (Homo sapiens, UniProt Q14721); assay: cell-based; settings: 100% = no change, <100% = inhibition
T5 construct: host or cells: HEK293 or CHO
Procedure, shortened: as §1

Cav2.2 = molecular target: T6, Cav2.2 (Homo sapiens, UniProt Q00975); assay: cell-based; settings: 100% = no change, <100% = inhibition
T6 construct: host or cells: HEK293 or CHO
Procedure, shortened: as §1

Cav2.1 = molecular target: T7, Cav2.1 (Homo sapiens, UniProt O00555); assay: cell-based; settings: 100% = no change, <100% = inhibition
T7 construct: host or cells: HEK293 or CHO
Procedure, shortened: as §1

TRPA1 = molecular target: T8, TRPA1 (Homo sapiens, UniProt O75762); assay: Ion channel panel (IonWorks Barracuda): TRPA1; format: cell-based; settings: 100% = no change, <100% = inhibition
T8 construct: host or cells: HEK293 or CHO
Procedure, shortened: as §1

Kv1.3 = molecular target: T9, Kv1.3 (Homo sapiens, UniProt P22001); assay: cell-based; format: cell-based; settings: 100% = no change, <100% = inhibition
T9 construct: host or cells: HEK293 or CHO
Procedure, shortened: as §1

Kv1.2 = molecular target: T10, Kv1.2 (Homo sapiens, UniProt P16389); assay: cell-based; format: cell-based; settings: 100% = no change, <100% = inhibition
T10 construct: host or cells: HEK293 or CHO
Procedure, shortened: as §1

Kv1.1 = molecular target: T11, Kv1.1 (Homo sapiens, UniProt Q09470); assay: cell-based; format: cell-based; settings: 100% = no change, <100% = inhibition
T11 construct: host or cells: HEK293 or CHO
Procedure, shortened: as §1

α4β2 = molecular target: T12, α4β2 (Homo sapiens, UniProt P17787+P43681); assay: Ion channel panel (IonWorks Barracuda): α4β2; format: cell-based; settings: 100% = no change, <100% = inhibition
T12 construct: host or cells: HEK293 or CHO
Procedure, shortened: as §1

TRPV1 = molecular target: T13, TRPV1 (Homo sapiens, UniProt Q8NER1); assay: Ion channel panel (IonWorks Barracuda): TRPV1; format: cell-based; settings: 100% = no change, <100% = inhibition
T13 construct: host or cells: HEK293 or CHO
Procedure, shortened: as §1

5HT3a = molecular target: T14, 5HT3a (Homo sapiens, UniProt P46098); assay: Ion channel panel (IonWorks Barracuda): 5HT3a; format: cell-based
T14 construct: host or cells: HEK293 or CHO
T14 sequence (P46098 whole entry, looked up): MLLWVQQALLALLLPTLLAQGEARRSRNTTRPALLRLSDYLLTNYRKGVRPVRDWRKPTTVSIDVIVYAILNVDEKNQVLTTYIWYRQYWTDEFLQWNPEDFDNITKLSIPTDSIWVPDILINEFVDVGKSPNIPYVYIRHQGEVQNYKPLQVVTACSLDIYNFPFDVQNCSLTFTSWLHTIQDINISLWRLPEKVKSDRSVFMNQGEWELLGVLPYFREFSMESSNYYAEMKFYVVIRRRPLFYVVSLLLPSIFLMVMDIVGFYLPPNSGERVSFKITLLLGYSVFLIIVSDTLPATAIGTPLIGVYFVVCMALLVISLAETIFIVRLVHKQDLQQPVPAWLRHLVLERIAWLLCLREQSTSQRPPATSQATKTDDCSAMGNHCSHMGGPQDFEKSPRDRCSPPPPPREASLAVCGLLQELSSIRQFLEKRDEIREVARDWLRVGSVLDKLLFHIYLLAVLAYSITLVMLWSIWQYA
Procedure, shortened: as §1

Kir2.1 = molecular target: T15, Kir2.1 (Homo sapiens, UniProt P63252); assay: Ion channel panel (IonWorks Barracuda): Kir2.1; format: cell-based; settings: 100% = no change, <100% = inhibition
T15 construct: host or cells: HEK293 or CHO
Procedure, shortened: as §1

[1] = first of two Nav1.5 columns (probably TP1)
[2] = second of two Nav1.5 columns (probably TP2)
[3] = first of two Nav1.7 columns (probably TP1)
[4] = second of two Nav1.7 columns (probably TP2)

T4 sequence (Q15858 whole entry): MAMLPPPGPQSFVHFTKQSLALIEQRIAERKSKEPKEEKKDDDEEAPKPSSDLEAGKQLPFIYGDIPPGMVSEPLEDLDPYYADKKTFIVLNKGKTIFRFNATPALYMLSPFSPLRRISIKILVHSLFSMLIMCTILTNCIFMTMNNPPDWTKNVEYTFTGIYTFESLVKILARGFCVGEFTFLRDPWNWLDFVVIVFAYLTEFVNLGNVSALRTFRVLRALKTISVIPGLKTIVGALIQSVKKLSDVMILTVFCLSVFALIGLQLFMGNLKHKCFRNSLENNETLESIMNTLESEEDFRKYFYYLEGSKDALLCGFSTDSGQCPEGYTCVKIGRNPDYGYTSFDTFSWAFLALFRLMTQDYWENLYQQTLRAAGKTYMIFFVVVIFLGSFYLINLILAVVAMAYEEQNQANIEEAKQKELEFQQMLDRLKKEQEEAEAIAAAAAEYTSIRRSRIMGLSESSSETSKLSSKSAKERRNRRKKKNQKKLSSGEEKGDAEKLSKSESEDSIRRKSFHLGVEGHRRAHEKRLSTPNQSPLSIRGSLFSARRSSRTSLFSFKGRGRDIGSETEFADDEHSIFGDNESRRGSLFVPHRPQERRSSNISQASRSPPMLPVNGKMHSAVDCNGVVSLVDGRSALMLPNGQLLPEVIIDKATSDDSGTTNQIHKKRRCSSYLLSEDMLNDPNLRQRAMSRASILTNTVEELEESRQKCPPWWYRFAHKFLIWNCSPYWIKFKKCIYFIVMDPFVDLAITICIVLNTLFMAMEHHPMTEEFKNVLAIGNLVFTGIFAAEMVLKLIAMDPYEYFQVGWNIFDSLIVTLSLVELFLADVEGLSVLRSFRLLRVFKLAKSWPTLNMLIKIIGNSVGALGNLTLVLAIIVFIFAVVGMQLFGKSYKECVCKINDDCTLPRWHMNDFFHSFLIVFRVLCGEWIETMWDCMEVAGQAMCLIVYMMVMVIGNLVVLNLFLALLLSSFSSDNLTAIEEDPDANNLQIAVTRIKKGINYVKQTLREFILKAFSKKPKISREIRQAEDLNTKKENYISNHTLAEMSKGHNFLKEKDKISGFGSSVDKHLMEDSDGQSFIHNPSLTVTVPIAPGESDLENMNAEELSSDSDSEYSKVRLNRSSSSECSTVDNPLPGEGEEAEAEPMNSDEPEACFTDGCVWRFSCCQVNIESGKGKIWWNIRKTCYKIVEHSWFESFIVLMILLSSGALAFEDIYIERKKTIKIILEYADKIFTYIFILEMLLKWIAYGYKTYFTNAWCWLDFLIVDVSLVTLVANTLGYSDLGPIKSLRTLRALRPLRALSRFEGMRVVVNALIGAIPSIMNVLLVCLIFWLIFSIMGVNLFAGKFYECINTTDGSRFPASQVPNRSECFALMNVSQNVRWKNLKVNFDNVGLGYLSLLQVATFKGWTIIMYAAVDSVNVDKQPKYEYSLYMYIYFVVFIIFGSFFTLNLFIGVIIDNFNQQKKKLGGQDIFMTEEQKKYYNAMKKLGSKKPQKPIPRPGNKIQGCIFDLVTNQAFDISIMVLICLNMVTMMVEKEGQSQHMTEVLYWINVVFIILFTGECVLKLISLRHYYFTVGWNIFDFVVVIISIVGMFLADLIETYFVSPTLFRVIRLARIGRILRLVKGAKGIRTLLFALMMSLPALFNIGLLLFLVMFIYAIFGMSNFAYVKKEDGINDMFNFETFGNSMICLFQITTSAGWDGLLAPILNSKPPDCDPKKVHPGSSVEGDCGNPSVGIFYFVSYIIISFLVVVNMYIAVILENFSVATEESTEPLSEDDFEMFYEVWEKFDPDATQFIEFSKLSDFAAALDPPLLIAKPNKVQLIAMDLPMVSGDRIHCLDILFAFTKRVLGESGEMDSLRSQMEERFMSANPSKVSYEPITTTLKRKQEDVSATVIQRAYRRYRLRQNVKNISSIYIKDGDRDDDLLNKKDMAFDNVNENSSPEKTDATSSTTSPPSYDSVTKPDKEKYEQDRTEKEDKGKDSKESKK
Nav1.5, sequence (Q14524 whole entry): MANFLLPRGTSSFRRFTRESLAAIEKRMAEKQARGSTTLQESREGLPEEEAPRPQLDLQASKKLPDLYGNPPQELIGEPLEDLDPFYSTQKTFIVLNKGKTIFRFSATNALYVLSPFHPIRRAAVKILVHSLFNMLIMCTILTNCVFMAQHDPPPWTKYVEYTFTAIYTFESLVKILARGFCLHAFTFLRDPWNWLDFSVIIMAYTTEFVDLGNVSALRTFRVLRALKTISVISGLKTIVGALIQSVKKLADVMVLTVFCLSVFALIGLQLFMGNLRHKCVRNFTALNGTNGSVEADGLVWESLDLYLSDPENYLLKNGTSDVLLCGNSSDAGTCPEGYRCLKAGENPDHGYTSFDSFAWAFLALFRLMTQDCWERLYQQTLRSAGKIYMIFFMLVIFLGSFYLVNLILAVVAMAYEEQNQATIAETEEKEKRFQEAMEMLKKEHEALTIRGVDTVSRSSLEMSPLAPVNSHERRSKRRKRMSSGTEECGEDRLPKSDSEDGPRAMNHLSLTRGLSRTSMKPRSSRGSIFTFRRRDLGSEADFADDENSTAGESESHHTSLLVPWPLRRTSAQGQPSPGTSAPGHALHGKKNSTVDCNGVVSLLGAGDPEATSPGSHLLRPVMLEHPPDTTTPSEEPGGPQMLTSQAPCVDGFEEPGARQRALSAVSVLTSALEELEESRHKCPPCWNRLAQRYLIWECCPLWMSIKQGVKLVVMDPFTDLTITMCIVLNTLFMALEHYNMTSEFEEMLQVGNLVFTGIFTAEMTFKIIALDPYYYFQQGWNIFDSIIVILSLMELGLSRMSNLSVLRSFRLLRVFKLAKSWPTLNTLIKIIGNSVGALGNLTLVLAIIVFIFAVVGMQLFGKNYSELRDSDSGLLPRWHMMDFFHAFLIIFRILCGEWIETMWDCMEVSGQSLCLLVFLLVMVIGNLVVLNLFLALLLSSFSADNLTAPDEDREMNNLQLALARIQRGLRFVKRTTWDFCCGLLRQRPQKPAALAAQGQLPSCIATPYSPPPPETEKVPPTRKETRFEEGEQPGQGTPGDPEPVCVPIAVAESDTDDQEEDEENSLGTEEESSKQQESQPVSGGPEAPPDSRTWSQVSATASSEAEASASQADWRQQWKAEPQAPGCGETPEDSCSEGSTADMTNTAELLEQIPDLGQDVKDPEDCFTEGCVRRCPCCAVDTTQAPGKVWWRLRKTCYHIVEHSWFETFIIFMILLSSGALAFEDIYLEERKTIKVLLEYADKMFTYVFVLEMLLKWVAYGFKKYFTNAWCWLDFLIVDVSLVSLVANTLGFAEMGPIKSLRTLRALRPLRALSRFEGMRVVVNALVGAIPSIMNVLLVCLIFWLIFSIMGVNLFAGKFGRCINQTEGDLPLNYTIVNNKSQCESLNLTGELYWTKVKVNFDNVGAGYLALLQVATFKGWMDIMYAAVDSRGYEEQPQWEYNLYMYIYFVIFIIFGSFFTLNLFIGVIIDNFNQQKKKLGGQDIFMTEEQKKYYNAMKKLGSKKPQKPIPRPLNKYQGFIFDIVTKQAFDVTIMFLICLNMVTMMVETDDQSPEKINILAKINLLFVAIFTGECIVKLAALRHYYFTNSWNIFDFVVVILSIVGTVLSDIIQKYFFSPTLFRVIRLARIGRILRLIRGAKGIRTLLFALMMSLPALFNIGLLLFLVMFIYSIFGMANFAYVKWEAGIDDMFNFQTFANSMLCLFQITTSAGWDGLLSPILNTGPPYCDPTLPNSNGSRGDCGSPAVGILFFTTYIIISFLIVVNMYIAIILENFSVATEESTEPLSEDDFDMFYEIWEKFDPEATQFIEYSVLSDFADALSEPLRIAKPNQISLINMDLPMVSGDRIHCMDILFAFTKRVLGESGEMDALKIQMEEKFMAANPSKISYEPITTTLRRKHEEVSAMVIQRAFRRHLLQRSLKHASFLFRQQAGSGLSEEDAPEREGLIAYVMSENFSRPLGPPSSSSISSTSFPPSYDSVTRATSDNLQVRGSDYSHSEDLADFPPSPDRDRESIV
T2 sequence (P30926 22-498): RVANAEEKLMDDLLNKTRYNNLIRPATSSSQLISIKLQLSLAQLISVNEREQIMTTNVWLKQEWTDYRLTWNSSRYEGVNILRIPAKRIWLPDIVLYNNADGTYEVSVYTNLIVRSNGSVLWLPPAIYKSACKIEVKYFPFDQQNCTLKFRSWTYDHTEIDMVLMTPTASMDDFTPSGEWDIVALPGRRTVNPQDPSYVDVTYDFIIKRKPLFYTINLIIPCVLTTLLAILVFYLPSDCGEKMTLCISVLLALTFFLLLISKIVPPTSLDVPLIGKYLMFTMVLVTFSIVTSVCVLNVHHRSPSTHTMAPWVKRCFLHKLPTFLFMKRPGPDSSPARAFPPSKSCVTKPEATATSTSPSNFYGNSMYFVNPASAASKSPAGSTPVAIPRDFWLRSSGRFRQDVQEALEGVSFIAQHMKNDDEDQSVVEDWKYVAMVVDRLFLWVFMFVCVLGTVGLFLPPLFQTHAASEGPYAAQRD
T2 sequence (P32297 32-505): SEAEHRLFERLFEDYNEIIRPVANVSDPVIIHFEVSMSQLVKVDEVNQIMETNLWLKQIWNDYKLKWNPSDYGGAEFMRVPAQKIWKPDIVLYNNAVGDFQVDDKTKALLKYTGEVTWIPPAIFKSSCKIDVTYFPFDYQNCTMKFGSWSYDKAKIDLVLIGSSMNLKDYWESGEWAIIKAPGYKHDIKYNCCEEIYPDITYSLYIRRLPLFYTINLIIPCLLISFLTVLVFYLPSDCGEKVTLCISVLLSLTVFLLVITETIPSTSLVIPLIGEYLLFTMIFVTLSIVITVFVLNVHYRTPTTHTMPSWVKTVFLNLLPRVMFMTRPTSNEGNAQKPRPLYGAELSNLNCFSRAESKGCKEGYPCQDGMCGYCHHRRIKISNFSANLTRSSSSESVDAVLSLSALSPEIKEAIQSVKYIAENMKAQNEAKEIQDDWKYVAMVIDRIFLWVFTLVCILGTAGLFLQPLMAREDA

## 20 (GSQIDTNVKCSGSSKCVKICIDRYNTRGAKCINGRCTCYP) [compound 20]
NR2B; peptide at 0.2 μM
  Activity of NR2B with peptide, expressed as a percentage of the reference compound: 104%
NR2B; peptide at 20 μM
  Activity of NR2B with peptide (percentage of the reference compound): 92%
hERG; peptide at 0.2 μM
  Activity of hERG with peptide, expressed as a percentage of the reference compound: 90%
hERG; peptide at 20 μM
  Activity of hERG with peptide (percentage of the reference compound): 87%
Nav1.5; [1]
  Activity of Nav1.5 with peptide, expressed as a percentage of the reference compound: 103%
  Activity of Nav1.5 with peptide (percentage of the reference compound): 102%
Nav1.5; [2]
  Activity of Nav1.5 with peptide, expressed as a percentage of the reference compound: 101%
  Activity of Nav1.5 with peptide (percentage of the reference compound): 105%
α3β4; peptide at 0.2 μM
  Activity of a3b4 with peptide, expressed as a percentage of the reference compound: 103%
α3β4; peptide at 20 μM
  Activity of a3b4 with peptide (percentage of the reference compound): 94%
NR2A; peptide at 0.2 μM
  Activity of NR2A with peptide, expressed as a percentage of the reference compound: 98%
NR2A; peptide at 20 μM
  Activity of NR2A with peptide (percentage of the reference compound): 104%
GABA; peptide at 0.2 μM
  Activity of GABA with peptide, expressed as a percentage of the reference compound: 109%
GABA; peptide at 20 μM
  Activity of GABA with peptide (percentage of the reference compound): 106%
Nav1.7; [3]
  Activity of Nav1.7 with peptide, expressed as a percentage of the reference compound: 92%
  Activity of Nav1.7 with peptide (percentage of the reference compound): 81%
Nav1.7; [4]
  Activity of Nav1.7 with peptide, expressed as a percentage of the reference compound: 59%
  Activity of Nav1.7 with peptide (percentage of the reference compound): 95%
Kv2.1; peptide at 0.2 μM
  Activity of Kv2.1 with peptide, expressed as a percentage of the reference compound: 99%
Kv2.1; peptide at 20 μM
  Activity of Kv2.1 with peptide (percentage of the reference compound): 97%
Cav2.2; peptide at 0.2 μM
  Activity of Cav2.2 with peptide, expressed as a percentage of the reference compound: 110%
Cav2.2; peptide at 20 μM
  Activity of Cav2.2 with peptide (percentage of the reference compound): 105%
Cav2.1; peptide at 0.2 μM
  Activity of Cav2.1 with peptide, expressed as a percentage of the reference compound: 100%
Cav2.1; peptide at 20 μM
  Activity of Cav2.1 with peptide (percentage of the reference compound): 116%
TRPA1; peptide at 0.2 μM
  Activity of TRPA1 with peptide, expressed as a percentage of the reference compound: 114%
TRPA1; peptide at 20 μM
  Activity of TRPA1 with peptide (percentage of the reference compound): 114%
Kv1.3; peptide at 0.2 μM
  Activity of Kv1.3 with peptide, expressed as a percentage of the reference compound: 80%
Kv1.3; peptide at 20 μM
  Activity of Kv1.3 with peptide (percentage of the reference compound): 7%
Kv1.2; peptide at 0.2 μM
  Activity of Kv1.2 with peptide, expressed as a percentage of the reference compound: 115%
Kv1.2; peptide at 20 μM
  Activity of Kv1.2 with peptide (percentage of the reference compound): 74%
Kv1.1; peptide at 0.2 μM
  Activity of Kv1.1 with peptide, expressed as a percentage of the reference compound: 94%
Kv1.1; peptide at 20 μM
  Activity of Kv1.1 with peptide (percentage of the reference compound): 95%
α4β2; peptide at 0.2 μM
  Activity of a4b2 with peptide, expressed as a percentage of the reference compound: 113%
α4β2; peptide at 20 μM
  Activity of a4b2 with peptide (percentage of the reference compound): 92%
TRPV1; peptide at 0.2 μM
  Activity of TRPV1 with peptide, expressed as a percentage of the reference compound: 109%
TRPV1; peptide at 20 μM
  Activity of TRPV1 with peptide (percentage of the reference compound): 102%
5HT3a
  Activity of 5HT3a with peptide (percentage of the reference compound): 91%
  Activity of 5HT3a with peptide, expressed as a percentage of the reference compound: 96%
Kir2.1; peptide at 0.2 μM
  Activity of Kir2.1 with peptide, expressed as a percentage of the reference compound: 89%
Kir2.1; peptide at 20 μM
  Activity of Kir2.1 with peptide (percentage of the reference compound): 95%
